Data published in publication PMC6405639 (2019).

Molecular target: Y2R_cysteine_deficient_eYFP (in HEK293 cells) (human, UniProt P49146 1-381, C58^1.40A | C103^2.57S | C151^3.53S | C272^6.39A | C316^7.44A | C342^7.70A)
Sequence (P49146 other isoform, or with tags, fused parts or gaps with the stated changes): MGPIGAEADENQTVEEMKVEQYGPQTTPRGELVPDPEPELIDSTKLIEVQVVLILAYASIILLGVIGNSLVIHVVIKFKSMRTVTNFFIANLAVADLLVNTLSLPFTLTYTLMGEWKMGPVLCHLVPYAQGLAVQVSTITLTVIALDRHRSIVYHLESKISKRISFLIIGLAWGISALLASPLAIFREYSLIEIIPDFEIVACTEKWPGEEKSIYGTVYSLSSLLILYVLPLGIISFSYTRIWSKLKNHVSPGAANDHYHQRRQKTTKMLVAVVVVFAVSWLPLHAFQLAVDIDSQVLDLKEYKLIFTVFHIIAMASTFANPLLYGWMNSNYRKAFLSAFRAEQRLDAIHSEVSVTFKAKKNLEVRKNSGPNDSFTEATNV

IC50: 8.2 nM
B1: Porcine neuropeptide Y (peptide)
peptide: not shown
modifications: C-terminal amide
